Source: patent US20040214329

Test system: phiC31 integrase (Streptomyces phage phiC31?)
Assay: cell_activity
Details: E. coli, 1% L-arabinose, 32 C, 60-120 min, resuspended 4:1 in fresh LB

With “phiC31 attB/attP sites flanking expression cassette in pBAD.phiC31.RHB” the activity (% recombination) was > 97.
